Assay results from patent publication US20150351390A1, “COMPOSITIONS AND METHODS FOR AUXIN-ANALOG CONJUGATION” (PIONEER HI-BRED INTERNATIONAL, INC., priority 2012, published 2015).

B1: AIGH3-6: GH3 protein, accession XP_002866046 (protein, listed as Arabidopsis lyrata)
chain: MPEAPKIVALEVSDESLAEKNKNKLQFIEDVTTNADDVQRRVLEEILSRNADVEYLKRHGLDGRTDRETFKHVMPVVTYEDIQPEINRIANGDKSQILCSNPISEFLTSSGTSGGERKLMPTIEEELDRRSLLYSLLMPVMNQFVPGLDKGKGMYFLFIKSESKTPGGLPARPVLTSYYKSSHFKNRPFDPYNNYTSPNQTILCSDSYQSMYSQMLCGLCQHKEVLRVGAVFASGFIRAIKFLEKHWSELARDIRTGTLSSEITDLSVREAVGEILKPDPKLADFVESECRKTSWQGIITRLWPNTKYVDVIVTGTMSQYIPTLDYYSNGLPLVCTMYASSECYFGVNLRPLCKPSEVSYTLIPNMAYFEFLPVHRNSGVTSSISLPKALTEKEQQELVDLVDVKLGQEYELVVTTYAGLYRYRVGDVLSVAGFKNNAPQFSFICRKNVALSIDSDKTDEVELQNAVKNAVTHLVPFDASLSEYTSYAETSSIPGHYVLFWELCLNGNTPIPPSVFEDCCLTIEESLNSVYRQGRVSDKSIGPLEIKMVESGTFDKLMDYAISLGASINQYKTPRCVKFAPIIELLNSRVVDSYFSPKCPKWAPGHKQWGSN
B2: AIGH3-2: GH3 protein, accession XP_002868993 (protein, listed as Arabidopsis lyrata)
chain: MAVDSPLQSRMVSPTTSEKDVKALKFIEEMTRNPDSVQEKVLGEILSRNSNTEYLKRFDINGAIDRNTFKNKVPVVTYEDLKPEIQRISNGDRSPILSSHPITEFLTSSGTSAGERKLMPTIEEDLDRRQLLYSLLMPVMNLYVPGLDKGKGLYFLFVKSESKTSGGLPARPVLTSYYKSDHFRRRPYDPYNVYTSPNEAILCSDSSQSMYAQMLCGLLMRHEVLRLGAVFASGLLRAISFLQNNWKELARDISTGTLSSRIFDPTIKNRMSKILIKPDQELAEFLIGVCSQENWEGIITKIWPNTKYLDVIVTGAMAQYIPTLEYYSGGLPMACTMYASSESYFGINLKPMCKPSEVSYTIMPNMAYFEFLPHNHDGDGATEASLDETSLVELADVEVGKEYELVITTYAGLYRYRVGDILRVTGFHNSAPQFKFIRRKNVLLSIESDKTDEAELQKAVENASRLFAEQGTRVIEYTSYAETKTIPGHYVIYWELLGRDQSNALPSEEVMAKCCLEMEESLNSVYRQSRVADKSIGPLEIRLVQNGTFEELMDYAISRGASINQYKVPRCVSFTPIMELLDSRVVSAHFSPSLPHWSPERRR
B3: AtGH3-1: GH3 protein, accession O82333 (protein, listed as Arabidopsis thaliana)
chain: MAVDSNLSSPLGPPACEKDAKALRFIEEMTRNADTVQENLLAEILARNADTEYLRRFNLCGATDRDTFKTKIPVITYEDLQPEIQRIADGDRSPILSAHPISEFLTSSGTSAGERKLMPTIKEELDRRQLLYSLLMPVMNLYVPGLDKGKGMYFLFVKSETKTPGGLPARPVLTSYYKSEHFRSRPYDPYNVYTSPNEAILCPDSFQSMYTQMLCGLLDRLSVLRVGAVFASGLLRAIRFLQLHWSRFAHDIELGCLDSEITDPSIRQCMSGILKPDPVLAEFIRRECKSDNWEKIITRIWPNTKYLDVIVTGAMAQYIPTLEYYSGGLPMACTMYASSECYFGLNLNPMSKPSEVSYTIMPNMAYFEFIPLGGTKAVELVDVNIGKEYELVVTTYAGLCRYRVGDILRVTGFHNSAPQFHFVRRKNVLLSIDSDKTDESELQKAVENASSILHEECGSRVAEYTSYADTSTIPGHYVLYWELLVRDGARQPSHETLTRCCLGMEESLNSVYRQSRVADNSVGPLEIRVVRNGTFEELMDYAISRGASINQYKVPRCVNFTPIVELLDSRVVSAHFSPSLPHWTPERRRR
B4: AtGH3-2: GH3 protein, accession AEE86787 (protein, listed as Arabidopsis thaliana)
chain: MAVDSPLQSRMVSATTSEKDVKALKFIEEMTRNPDSVQEKVLGEILTRNSNTEYLKRFDLDGVVDRKTFKSKVPVVTYEDLKPEIQRISNGDCSPILSSHPITEFLTSSGTSAGERKLMPTIEEDLDRRQLLYSLLMPVMNLYVPGLDKGKGLYFLFVKSESKTSGGLPARPVLTSYYKSDHFKRRPYDPYNVYTSPNEAILCSDSSQSMYAQMLCGLLMRHEVLRLGAVFASGLLRAISFLQNNWKELARDISTGTLSSRIFDPAIKNRMSKILTKPDQELAEFLVGVCSQENWEGIITKIWPNTKYLDVIVTGAMAQYIPTLEYYSGGLPMACTMYASSESYFGINLKPMCKPSEVSYTIMPNMAYFEFLPHNHDGDGAAEASLDETSLVELANVEVGKEYELVITTYAGLYRYRVGDILRVTGFHNSAPQFKFIRRKNVLLSVESDKTDEAELQKAVENASRLFAEQGTRVIEYTSYAETKTIPGHYVIYWELLGRDQSNALMSEEVMAKCCLEMEESLNSVYRQSRVADKSIGPLEIRVVRNGTFEELMDYAISRGASINQYKVPRCVSFTPIMELLDSRVVSAHFSPSLPHWSPERRR
B5: AtGH3-4: GH3 protein, accession Q9LQ68 (protein, listed as Arabidopsis thaliana)
chain: MAVDSLLQSGMASPTTSETEVKALKFIEEITRNPDSVQEKVLGEILSRNSNTEYLKRFDLNGAVDRKSFKSKVPVVIYEDLKTDIQRISNGDRSPILSSHPITEFLTSSGTSAGERKLMPTIEEDINRRQLLGNLLMPVMNLYVPGLDKGKGLYFLFVKSESTTSGGLPARPALTSYYKSDYFRTSDSDSVYTSPKEAILCCDSSQSMYTQMLCGLLMRHEVNRLGAVFPSGLLRAISFLQNNWKELSQDISTGTLSSKIFDHAIKTRMSNILNKPDQELAEFLIGVCSQENWEGIITKIWPNTKYLDVIVTGAMAEYIPMLEYYSGGLPMASMIYASSESYFGINLNPMCKPSEVSYTIFPNMAYFEFLPHNHDGDGGVEATSLVELADVEVGKEYELVITTYAGLYRYRVGDILRVTGFHNSAPQFKFIRRENVLLSIESDKTDEADLQKAVENASRLLAEQGTRVIEYTSYADTKTIPGHYVIYWELLSRDQSNALPSDEVMAKCCLEMEESLNAVYRQSRVSDKSIGPLEIRVVQNGTFEELMDFSISRGSSINQYKVPRCVSLTPIMKLLDSRVVSAHFSPSLPHWSPERRH
B6: AtGH3-5: GH3 protein, accession O81829 (protein, listed as Arabidopsis thaliana)
chain: MPEAPKKESLEVFDLTLDQKNKQKLQLIEELTSNADQVQRQVLEEILTRNADVEYLRRHDLNGRTDRETFKNIMPVITYEDIEPEINRIANGDKSPILSSKPISEFLTSSGTSGGERKLMPTIEEELDRRSLLYSLLMPVMSQFVPGLENGKGMYFLFIKSESKTPGGLPARPVLTSYYKSSHFKERPYDPYTNYTSPNETILCSDSYQSMYSQMLCGLCQHQEVLRVGAVFASGFIRAIKFLEKHWIELVRDIRTGTLSSLITDPSVREAVAKILKPSPKLADFVEFECKKSSWQGIITRLWPNTKYVDVIVTGTMSQYIPTLDYYSNGLPLVCTMYASSECYFGVNLRPLCKPSEVSYTLIPSMAYFEFLPVHRNNGVTNSINLPKALTEKEQQELVDLVDVKLGQEYELVVTTYAGLCRYRVGDLLRVTGFKNKAPQFSFICRKNVVLSIDSDKTDEVELQNAVKNAVTHLVPFDASLSEYTSYADTSSIPGHYVLFWELCLDGNTPIPPSVFEDCCLAVEESFNTVYRQGRVSDKSIGPLEIKIVEPGTFDKLMDYAISLGASINQYKTPRCVKFAPIIELLNSRVVDSYFSPKCPKWVPGHKQWGSN
B7: PtGH3-7: GH3 protein, accession EEE84166 (protein, listed as Populus trichocarpa)
chain: MLPVFDPNDNEAGLKLLEDLTNNACQIQQQVLEEILATNLHTEYLKSFLNGDSGKENFKNKVPIVNYEDIKPCIERIANGEPSSIISTQPITELLTSSGTSGGQPKIMPSTAEELERKTFFYNLLVPVMNKYVDGLDQGKAMYLLFIKPEISTPSGLMARPVLTSYYKSNNFRNRAFNRYNVYTSPDETILCSDSKQSMYCQLLCGLVQRDEVLRVGAIFASAFLRAIKFLEEYLKELCSNIRTGSVSDWITDPNCRNAVLSILSKPNSELADLIEDECSGKSWEGIIKKLWPRTKYIEVIVTGSMAQYIPTLEFYSGGLPLVSTMYGSSECYLGINFKPLSNPYDVSYTLLPNMAYFEFLPVDNNHKEVVPDVQCNGVSVTDRNGKEKVEAVDLVDVKLGHYYELIVTTFTGLYRYRVGDILMVTGFYNNAPQFRFVHRRNVVLSIDTDKTNEEDLLKAVTQAKVLLEPLGFLLTEYTSFADTASIPGHYVLFWELKMRGTNDLPELDPVIMEQCCSIVEESLDSVYRRCRKKDKSIGPLEVRVVTHGTFDALMDFCVSQGSSVNQYKTPRCIKSEEALKILDSRVVGRFSSNKTPFWEPFRIET

Test: LC-MS assay of GH3 conjugation of 2,4-D with Asp or Glu
Assay type: biochemical
Conditions: conjugation of 2,4-D with Asp by recombinant GH3 protein; 2,4-D-Asp product by LC-MS; 5 mM 2,4-D substrate
In short: (§1)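 Amino acid conjugates of IAA, 2,4-D or dicamba measured by LC-MS against conjugate standards, with kinetic parameters fitted to Michaelis-Menten initial velocities. Reactions: 5 mM each of auxin, ATP and Asp or Glu with 44 to 164 μg/mL purified His-tagged GH3 (E. coli-expressed), pH 8.0 Tris, 5 mM MgCl2, 1 mM DTT, 30 °C for 3 h.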

Row | Molecule | kcat (hrs−1) 2,4-D-Asp
1 | B1 | 1.300 h⁻¹
2 | B2 | 1.903 h⁻¹
3 | B3 | 1.188 h⁻¹
4 | B4 | 1.200 h⁻¹
5 | B5 | 2.032 h⁻¹
6 | B6 | 2.309 h⁻¹
7 | B7 | 0.547 h⁻¹

Same assay, conditions: conjugation of 2,4-D with Glu by recombinant GH3 protein; 2,4-D-Glu product by LC-MS; 5 mM 2,4-D substrate

Row | Molecule | kcat (hrs−1) 2,4-D-Glu
8 | B1 | 0.211 h⁻¹
9 | B2 | 0.309 h⁻¹
10 | B3 | 0.136 h⁻¹
11 | B4 | 0.131 h⁻¹
12 | B5 | 0.594 h⁻¹
13 | B6 | 0.795 h⁻¹
14 | B7 | 3.487 h⁻¹

Test: LC-MS assay of GH3 conjugation of IAA with Asp or Glu
Assay type: biochemical
Conditions: conjugation of IAA with Asp by recombinant GH3 protein; IAA-Asp product by LC-MS
In short: as §1

Row | Molecule | kcat (hrs−1) IAA-Asp
15 | B1 | 413.293 h⁻¹
16 | B2 | 583.500 h⁻¹
17 | B3 | 437.707 h⁻¹
18 | B4 | 511.761 h⁻¹
19 | B5 | 414.602 h⁻¹
20 | B6 | 578.727 h⁻¹
21 | B7 | 38.668 h⁻¹

Same assay, conditions: conjugation of IAA with Glu by recombinant GH3 protein; IAA-Glu product by LC-MS

Row | Molecule | kcat (hrs−1) IAA-Glu
22 | B1 | 20.881 h⁻¹
23 | B2 | 13.953 h⁻¹
24 | B3 | 19.230 h⁻¹
25 | B4 | 30.640 h⁻¹
26 | B5 | 37.932 h⁻¹
27 | B6 | 68.086 h⁻¹
28 | B7 | 450.548 h⁻¹
